Results: patent US20170290925A1, “Conjugates And Conjugating Reagents” (priority 2014, published 2017)
Where a SMILES comes first, the peptide text is derived from it. [ ]: non-standard residue; d: D form. The star is where a group is joined. Dolaproine = CO[C@@H]([C@@H]1CCCN1)[C@@H](C)C(=O)O; Dil = CC[C@H](C)[C@H](NC)[C@@H](CC(=O)O)OC; X1 = C[C@@H](N*)[C@@H](O)c1ccccc1; NMeV = CN[C@H](C(=O)O)C(C)C

Columns and labels:
[1] = system: CD30-positive Karpas 299 cell line; assay: In vitro cell viability assay (CellTiter Glo) in Karpas 299; assay type: cell-based, human; conditions: Karpas 299 cells, 72 h incubation, conjugates DAR 4
Protocol: Purified brentuximab drug conjugates 10 and 11 with a drug to antibody ratio (DAR) of four as described in Example 6, were evaluated in vitro by measuring the inhibitory effect on cell growth of (CD30)-positive cell line Karpas 299 using the method described below.
Loss of tumour cell viability following treatment with cytotoxic drugs or ADCs in vitro can be measured by growing cell lines in the presence of increasing concentrations of drugs or ADCs and quantifying the loss of proliferation or metabolic activity using CellTiter Glo® Luminescence reagent (Promega Corp. Technical Bulletin TB288; Lewis Phillips G. D, Cancer Res 2008; 68:9280-9290). […]
The human T cell lymphoma cell line Karpas 299 was obtained from Dr Abraham Karpas at the University of Cambridge. […] CD30-positive Karpas 299 were counted using a Neubauer haemocytometer and adjusted to a cell density of 5×10^4/mL. […]
The cell viability assay was carried out using the Cell-Titer Glo® Luminescence reagent, as described by the manufacturer's instructions, (Promega Corp. Technical Bulletin TB288; Lewis Phillips G. D, Cancer Res 2008; 68:9280-9290). […] Luminescence was recorded using a plate reader (e.g. MD Spectramax M3 plate reader), and data subsequently analysed using a four parameter non-linear regression model. […]

[2] = In vivo pharmacokinetics in rats, average DAR by CD30 affinity capture and HIC; design: species or system Sprague-Dawley rats; conditions: single dose 7 mg/kg IV, period of 850 h
Protocol: (§1) Brentuximab conjugate 10 was used in this study as the ADC with a pendant PEG group. Brentuximab conjugate 11 was used as a comparator with a non-pendant PEG group.
(§2) In vivo pharmacokinetics in rats. Sprague-Dawley rats (3 rats per group) with an average weight of 200 g were treated with either 10, 11 or Adcetris®, via the tail vein (IV, bolus) at a single dose of 7 mg/kg. Serial sampling of 100 μL blood was performed before dosing and subsequently at 30 min, 24 h, 48 h, 7 d, 14 d and 35 d post-dosing respectively. Plasma was prepared from fresh blood samples and frozen at −80° C. until analysis.
CD30 affinity capture for average DAR determination Affinity capture was performed using streptavidin coated magnetic beads (Dynabeads-Streptavidin T1, Life Technologies). […] 500 1AL of the plasma sample in PBS was added to the CD30-coated beads and incubated overnight at 4° C. and finally washed using PBS. Captured antibodies were eluted using acidic elution buffer for 5 minutes at 4° C. […] Eluted samples were further mixed with HIC loading buffer and analysed using hydrophobic interaction chromatography with UV detection (HIC-UV).
Hydrophobic interaction chromatography for average DAR determination. Affinity captured ADCs were analysed using hydrophobic interaction chromatography in order to determine the average drug to antibody ratio (DAR). […]

[3] = In vivo pharmacokinetics in rats, total (anti-CD30 antibody) ELISA; design: species or system Sprague-Dawley rats; conditions: single dose 7 mg/kg IV, period of 850 h
Protocol: as §1, §2
Total (anti-CD30 antibody) ELISA. Total brentuximab antibody content from plasma samples was quantified using ELISA technology. Briefly, Maxisorp™ 96 well plates (Nunc/Fisher) were coated with recombinant human CD30, (Sino Biological Inc, 2.5 μg/mL in diluent) and incubated at 4° C. overnight. Plasma samples were diluted to ensure that the unknown ADCs fell within the linear range of the sigmoidal standard calibration curve. […]
IgG, (Promega) was added to the plate and the samples were incubated for 1 hour at room temperature on a shaker at 350 rpm. […] The assay was stopped with 100 μL of 0.5 M H2SO4 and read at UV λ=[…] using the plate reader. Data were plotted and evaluated in GraphPad Prism 5 and Microsoft Excel.

Work on `CC[C@H](C)[C@@H]([C@@H](CC(=O)N1CCC[C@H]1[C@H](OC)[C@@H](C)C(=O)N[C@H](C)[C@@H](O)c1ccccc1)OC)N(C)C(=O)[C@@H](NC(=O)[C@@H](NC)C(C)C)C(C)C` [MMAE] (H-[NMeV]V[Dil][Dolaproine]-X1) yielded an IC50 [1] of 0.105 nM.
With Adcetris® the “Rate of drug loss from the conjugate (average DAR)” value [2] was “much faster rate of drug dissociation” and the “Rate of clearance from the circulation (total antibody)” value [3] was “cleared more quickly”.
